Laboratory results reported in CN115010810A (NANJING SANHOME PHARMACEUTICAL CO LTD, dated 2022).

T1: 人CTLA-4-His蛋白 (human CTLA-4 extracellular domain fused to His tag) (human, UniProt P16410 36-161)
T1 construct: also called hCTLA-4-His
T1 sequence: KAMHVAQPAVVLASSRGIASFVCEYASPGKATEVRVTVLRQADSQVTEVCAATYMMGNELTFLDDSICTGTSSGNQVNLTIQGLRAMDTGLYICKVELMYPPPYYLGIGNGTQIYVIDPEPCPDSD


How the values were obtained:
[1] = biological target: T2, PD-1 on the surface of hPD-1-CHO-K1 cells (human, UniProt Q15116 25-288); test: FACS on hPD-1-CHO-K1 cells
T2 construct: also called 细胞表面PD-1; CHO-K1-PD-1

[2] = biological target: 人PD-1-His蛋白 (自产; human PD-1 extracellular domain with His tag) (human, UniProt Q15116 25-170); test: ELISA, human PD-1-His coated
[3] = biological target: T3, 食蟹猴PD-1-His (SB, Cat.No.90311-C08H) (cynomolgus monkey); test: ELISA, cynomolgus PD-1-His coated
T3 construct: Purchased protein; also called cynomolgus PD-1-His

[4] = biological target: T1, 人CTLA-4-His蛋白 (human CTLA-4 …); test: ELISA, human CTLA-4-His coated

Chain of 人PD-1-His蛋白 (自产; human PD-1 extracellular domain with His tag) (Q15116 25-170 limits assumed): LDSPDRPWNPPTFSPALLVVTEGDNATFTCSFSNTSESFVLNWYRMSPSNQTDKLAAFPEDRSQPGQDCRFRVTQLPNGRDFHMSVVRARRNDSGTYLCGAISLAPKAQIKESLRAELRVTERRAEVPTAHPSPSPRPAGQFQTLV
T2 sequence (Q15116 25-288 limits assumed): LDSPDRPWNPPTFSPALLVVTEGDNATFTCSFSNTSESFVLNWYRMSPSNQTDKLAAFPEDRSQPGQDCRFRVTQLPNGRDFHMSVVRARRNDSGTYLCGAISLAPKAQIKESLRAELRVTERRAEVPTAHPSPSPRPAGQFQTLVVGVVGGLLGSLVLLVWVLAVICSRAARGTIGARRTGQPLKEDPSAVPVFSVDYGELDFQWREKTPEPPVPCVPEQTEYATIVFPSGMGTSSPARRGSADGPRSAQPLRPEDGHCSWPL

Row | Binder | EC50 [1] [nM] | EC50 [2] [nM] | EC50 [3] [nM] | EC50 [4] [nM]
1 | SHS006-HuP01-22 (antibody, V domains shown, also called SHS006-P01-22; 人源化抗PD-1抗体SHS006-HuP01-22) VH: QVQLVQSGAEVKKPGASVKVSCKASGYTFTWYHMSWVRQAPGQGLEYMGYINTRSGDTYYNEKFKGRVTMTTDTSTSTAYMELRSLRSDDTAVYYCARSGYGGSDYWGQGTLVTVSS VL: DIVMTQSPDSLAVSLGERATINCKSSQNLLYSENKKNSLAWYQQKPGQPPKLLISWASTREFGVPDRFSGSGSGTDFTLTISSLQAEDVAVYYCEQYYDILPTFGGGTKVEIK | 0.11 | 0.18 | 0.088 | 
2 | HuC92-11 (antibody, V domains shown, also called SHS010-HuC92-11; 人源化抗CTLA-4抗体HuC92-11) VH: QVQLVESGGGVVQPGRSLRLSCAASGFTFSNYAMSWVRQAPGKGLEWVAEISYSGTYSYHSDTVTGRFTISRDNSKNTLYLQMSSLRAEDTAVYYCTRRDYDNEMDYWGQGTLVTVSS VL: DIQMTQSPSSLSASVGDRVTITCRTSQVITNYLNWYQQKPGKAPKLLIYYTSRLHSGVPSRFSGSGSGTDYTLTISSLQPEDFATYYCQQFGKRPPTFGGGTKVEIK |  |  |  | 0.01
